Here are results for 23 sequences from the DeepSol protein solubility set.

A short description of the data set: soluble on expression in E. coli; label from the status in PepcDB or PDB records.
In the case of “MAKKTKQRRPMGFPPGPPGLPFIGNIYSLAASSELPHVYMRKQSQVYGEIFSLDLGGISTVVLNGYDVVKECLVHQSEIFADRPCLPLFMKMTKMGGLLNSRYGRGWVDHRRLAVNSFRYFGYGQKSFESKILEETKFFNDAIETYKGRPFDFKQLITNAVSNITNLIIFGERFTYEDTDFQHMIELFSENVELAASASVFLYNAFPWIGILPFGKHQQLFRNAAVVYDFLSRLIEKASVNRKPQLPQHFVDAYLDEMDQGKNDPSSTFSKENLIFSVGELIIAGTETTTNVLRWAILFMALYPNIQGQVQKEIDLIMGPNGKPSWDDKCKMPYTEAVLHEVLRFCNIVPLGIFHATSEDAVVRGYSIPKGTTVITNLYSVHFDEKYWRDPEVFHPERFLDSSGYFAKKEALVPFSLGRRHCLGEHLARMEMFLFFTALLQRFHLHFPHELVPDLKPRLGMTLQPQPYLICAERRHHHHHH”, the “soluble on expression in E. coli” value was “soluble”.

Take “SGAAAAEADRTLFVGNLETKVTEELLFELFHQAGPVIKVKIPKDKDGKPKQFAFVNFKHEVSVPYAMNLLNGIRLYGRPIKIQFRSGSSHAPQDVSLSYPQHHVGNSSPTSTSPSRYERTMDNMTSSAQIIQRSFSSPENFQRQAVMNSALRQMSYGGKFGSSPLDQSGFSPSVQSHSHSFNQSSSSQWRQGTPSSQRKVRMNSYPYLADRHYSREQRYTDHGSDHHYRGKRDDFFYEDRNHDDWSHDYDNRRDSSRDGKWRSSRH”: the “soluble on expression in E. coli” value is reported as “soluble”.

For the sequence “MGSDKIHHHHHHMGTRLDILMIHSNLPLLNMLWAHITDELERLDKMLNRFDATSEVSKLNSHTQQDSVSVSAELEDILRSCQYYYEKTLHLFDITLNDFSQIQIHGNHHISFSNFSVTLDFGGFAKGYALKKIQEILLRGNIENAFVDFGNSSIMGIGHHPYGDCWKVSLQNPYTQQTLDEFCLTDNTLSTSGNTEQYTGHIINPLTGIYNEQKKVTSILSDNPLDAEILSTVWMIADDQQREQINENFKHIKGTIYTL”, the “soluble on expression in E. coli” value is reported as “not soluble”.

For the sequence “MGSSGGGGSGGGGVTADIGTGLADALTAPLDHKDKGLKSLTLEDSISQNGTLTLSAQGAEKTYGNGDSLNTGKLKNDKVSRFDFIRQIEVDGQLITLESGEFQVYKQSHSALTALQTEQEQDPEHSEKMVAKRRFRIGDIAGEHTSFDKLPKDVMATYRGTAFGSDDAGGKLTYTIDFAAKQGHGKIEHLKSPELNVDLAVAYIKPDEKHHAVISGSVLYNQDEKGSYSLGIFGEKAQEVAGSAEVETANGIHHIGLAAKQ”, the “soluble on expression in E. coli” value is reported as “soluble”.

Take “GINAGKMAMIVTDKGEQVTKAINACCNRGSTILKGMGGYKMDKKEVVICACNNKEMFFVQQVVKEVDPAAFTVVLESNEVHGEGFKMFQIGEGNVTVQTGLRSCCADRAKMQRQ”: the “soluble on expression in E. coli” value is recorded as “not soluble”.

Turning to “MTSVIPEQRNNPFYRDSATIASSDHTERGEWVTQAKCRNGDPDALFVRGAAQRRAAAICRHCPVAMQCCADALDNKVEFGVWGGLTERQRRALLRKKPHITNWAEYLAQGGEIAGV”, the “soluble on expression in E. coli” value is “not soluble”.

As to “MLFDSLPRPSERIAPGVAHLPGWLGVDKQAELVREIREIARTYADTPMAMLRPTLKSGGQMSVYQLHLGRYWHYPSYRYIDKIAGTTVPPVPDSLAALAPEALRAAAEVAEELAPWVETFVPEMVLVNYYPPGSRMGMHVDEFEESRAPVISVSIGDEALFRMGHTESRTQPWDDVTLCSGDLVVFGGPKRFAYHGVVRVNDATLPDGCGLEQGRINITIRQVSAAPNVQGR”, the “soluble on expression in E. coli” value is on record as “not soluble”.

On to “MPVVKSIYSSLKSFADYFSPSAKTSSQQVVILRMPGNPLELVGLVTRRTLEGLPDGFTQGDRVAVYLPMGYMIGGYTVFVPTEWVHPIQMSVEEAMRSSLIAWMARLEHHHHHH”, for which the “soluble on expression in E. coli” value is given as “not soluble”.

Turning to “MKVEIGKIVNTHGIKGEIKVKSNSDFTETRFQPGELVIIERKNKEPLEFTIASYRMHKGLHMLTFEGINNINDIEYLKGETIMQERDHEEIELGEHEFYYSDIIGCTVFDDDDTPIGRVTEIFETGANDVWVVKGDKEYLIPYIADVVKDIDVEGRRIQITPMEGLLDLEHHHHHH”, the “soluble on expression in E. coli” value is recorded as “soluble”.

“MGSDKIHHHHHHMELNEFLDKAYAVLRRLDAVLPPEPGHTDWNALAFRWQSAGKKGFLEHLPDPHTFPLARLAGVGRQTELLVRNTEQFIAGRPANNVLMSGARGTGKSSLVKALLHEYADKGLRLIEVDKSDLIGLPYLLTLLKERPEKFIVFCDDLSFESGDETYKALKTALDGGLSQRCANVLVYATSNRRHLMPEYFDENAGTTGMRGEIHQKEAVEEKISLSDRFGLWLSFYPFDQNDYLAAVQNWLEDFGVPYDETAQMAALQWAQTRGSRSGRSAWQFACDWAGRLPKQRAL”: the “soluble on expression in E. coli” value was “not soluble”.

As for “MGSDKIHHHHHHMADAATLKARVAQIFREAWTTREGQKVPDPGDVKLGNDAVEFEKATILYADLSGSTDLVNAHGWTFAAEIYKTYLHCAATIIRDEGGSIVSYDGDRVMGVFIGDPQTTPAARAGLKINYAVQEIINPALKAQYPSNTFVVRQVVGIDTSPIRAARTGVRGDNDLVWVGRAANYAAKLTELKLDERTWITKEAYDRLTDDAKFGGANRTLMWKFYRWSQMNDHPIYGSTWRWSL”, the “soluble on expression in E. coli” value is recorded as “not soluble”.

For the sequence “MERDRISALKRSFEVEEVETPNSTPPRRVQTPLLRATVASSTQKFQDLGVKNSEPSARHVDSLSQRSPKASLRRVELSGPKAAEPVSRRTELSIDISSKQVENAGAIGPSRFGLKRAEVLGHKTPEPAPRRTEITIVKPQESAHRRMEPPASKVPEVPTAPATDAAPKRVEIQMPKPAEAPTAPSPAQTLENSEPAPVSQLQSRLEPKPQPPVAEATPRSQEATEAAPSCVGDMADTPRDAGLKQAPASRNEKAPVDFGYVGIDSILEQMRRKAMKQGFEFNIMVVGQSGLGKSTLINTLFKSKISRKSVQPTSEERIPKTIEIKSITHDIEEKGVRMKLTVIDTPGFGDHINNENCWQPIMKFINDQYEKYLQEEVNINRKKRIPDTRVHCCLYFIPATGHSLRPLDIEFMKRLSKVVNIVPVIAKADTLTLEERVHFKQRITADLLSNGIDVYPQKEFDEDSEDRLVNEKFREMIPFAVVGSDHEYQVNGKRILGRKTKWGTIEVENTTHCEFAYLRDLLIRTHMQNIKDITSSIHFEAYRVKRLNEGSSAMANGVEEKEPEAPEM”, the “soluble on expression in E. coli” value was “not soluble”.

Take “GPGSMMSLPVEAVKEFLLKLQDDICHAIEAEDEQATFMEDKWTREGGGGGRTRVIANGAVIEKGGVNFSHVYGKGLPGSSTERHPDMAGCNYQAMGVSLVIHPKNPHVPTSHANVRLFVAEKEGKEPVWWFGGGFDLTPYYAVEEDCYYFHHVAQELCRPFGADVYERFKAWCDEYFFIPHRNEARGIGGLFFDDLNEWPFEKCFAFMQAVGKGFIDAYIPIVNRRKNTPYTEQQVEFQEFRRGRYAEFNLVIDRGTKFGLQSGGRTESILMSLPPRARWGYNWHPEPGTPEARLTEYFLTKKQWV”: the “soluble on expression in E. coli” value is recorded as “soluble”.

On to “MSLSDDVALPLEFTDAAANKVKSLIADEDNPNLKLRVYITGGGCSGFQYGFTFDDQVNEGDMTIEKQGVGLVVDPMSLQYLVGGSVDYTEGLEGSRFIVTNPNAKSTCGCGSSFSIEGGSHHHHHH”, for which the “soluble on expression in E. coli” value is on record as “soluble”.

As to “MSLGRKQQYGTLASIAAKLGISRTTVSNAYNRPEQLSAELRQRILDTAEDMGYLGPDPVARSLRTRRAGAIGVLLTEDLTYAFEDMASVDFLAGVAQAAGDTQLTLIPASPASSVDHVSAQQLVNNAAVDGVVIYSVAKGDPHIDAIRARGLPAVIADQPAREEGMPFIAPNNRKAIAPAAQALIDAGHRKIGILSIRLDRANNDGEVTRERLENAQYQVQRDRVRGAMEVFIEAGIDPGTVPIMECWINNRQHNFEVAKELLETHPDLTAVLCTVDALAFGVLEYLKSVGKSAPADLSLTGFDGTHMALARDLTTVIQPNKLKGFKAGETLLKMIDKEYVEPEVELETSFHPGSTVAEGHHHHHH”, the “soluble on expression in E. coli” value was “soluble”.

For the sequence “MAEHRGGSGNFAENREKASEAGRKGGQHSGGNFKNDPQRASEAGKKGGQNSHGGRKSDNS”, the “soluble on expression in E. coli” value is recorded as “not soluble”.

For “MHFVKKVPTTEEEKAAKQKEHTKRSQQFLHVRDKIVAKREKGEYDDEILSLTQAILEKNADIYTFWNIRRTTIELRMEANEKVQQSADAEEEEKTKSSQKIENLLAGELFLSYECIKSNPKSYSAWYQRAWALQRQSAPDFKKELALCEKALQLDCRNFHCWDHRRIVARMAKRSEAEELEFSNKLINDNFSNYSAWHYRSIALKNIHRDEKTGAPKIDDELIASELQKVKNAFFMDAEDQSAWTYTRWLLEVGSGKEFLRPESHTPIELISASFHGNNTTLVFSRAVTIQFLLTFVDTENTTGWRAFSSTSPNPTSSRVWQYLSDTPLRVVTSNPTDLENISWTELNEQPYVNLDRLKTIYDVVEVPQPAYIGELLEDCKQLIELEPKNKWPLYMRTLVLLEYQPIKSYEEIIKNLENLSENLDPKRSELYKSLISRQNLNFSIREQFERILGPDTDWLTCRYSKLTSLEGVEYLAGFVGSADFSGNRLKEIQRIVLPNLKSLTINENPIESLPPSPCLSHLTFFSIAGTQIASVSAVMPFFQTIPSLDRLVFCETPLVEKTEELRAQLPGVRLIPHWL”, the “soluble on expression in E. coli” value was “soluble”.

Take “MGSDKIHHHHHHMVAIKNFSIKIKDKEPVFTLGEKLTQEQLDFFETHGYIHFKNFLNPETVPAVIKALEDVQEQWIAENREKVNGVPIKYGVDLDGKKIVQRFAFASLFSNVLHELLKDPRLKALYPLLQAKDERIGEFEKDGLVVNHYINSDASSFTKMGWHTDCLRDVFYGKKIMPMLNVGIHLDNYDPKNGGLRIIPGTHKQDLLNLLFRKKYYVSHKPDPDEIGFNITAGDLTVHDGRSWHRVERSPITGEASRRRVMYIPFIGGEYQPKDENSSTQLYQRLSKFVR”: the “soluble on expression in E. coli” value is listed as “not soluble”.

In the case of “MDNYQEITRYLDNAREILSTKANKEGQFYKDIKYVQMASGTAYNAALMIADEYLRKKEGAKFTKPNSIDEYRVRLNKHNKTLLAYLNRAYDMLHLAGYYHGTPSVGTIKQGMEAAQKMLALIEH”, the “soluble on expression in E. coli” value is “soluble”.

Turning to “MAHVAEWKKKEVEELAKLIKSYPVIALVDVSSMPAYPLSQMRRLIRENGGLLRVSRNTLIELAIKKAAKELGKPELEKLVEYIDRGAGILVTNMNPFKLYKFLQQNRQPAPAKPGAVVPKDVVVPAGPTPLAPGPIVGQMQALGIPARIEKGKVTIQKDTTVLKAGEVITPELANILNALGIQPLEVGLDVLAVYEDGIVYTPDVLAIDEQEYIDMLQKAYMHAFNLAVNIAYPTPETIEAIIQKAFLNAKTVAIEAGYITKETIQDIIGRAFRAMLLLAQQLP”, the “soluble on expression in E. coli” value is “soluble”.

As to “TQDMELNINANITFQQNKLLSLSGMYNGELISAPEYKSLASLDGAGFHGGYNHIVYQVVGQPLGVFYLPRANGLVSDGNGGYTYDIADLNGGGVSLEDGEDRYVAGQAVPKTILGSNLSFRYKRFDISVQINGAFGHKIYNGTSLTYMNMNIFPDYNVMQEAPARNIKDQTATDYWLENGAYVNFDYVTLGWNVPIEKVQKLKKYVRSLRLAFTVNNLATISGYSGLSPMINSSTVNSTLGLDDKRGYPLARTYTLGLSINF”, the “soluble on expression in E. coli” value is given as “not soluble”.

As for “MGSDKIHHHHHHMSETVTESYIGSAIVYIDGRDCGNVSGVKLAIDQETKSLPNYRGGGGNADEVTLIKAVKLSGTFYDFNNDNLALAMRGKIDVLTAAAVVDEDITAVLDGLAPTVHMIDTSVAPVVKNTAGDSTYVLDEDYVVSAAGIRALSGGAITAGQALKLSYTSQAGNALQALTESGKTVSVVVDGINDSTGKPWTLKFYKWKPTPTSGLDLIGTDYGSFDIEGAVLADSSIVATGKSKFFVRSAA”, the “soluble on expression in E. coli” value was “not soluble”.

For “MAFKLPNLPYAYDALEPYIDQRTMEFHHDKHHNTYVTKLNATVEGTELEHQSLADMIANLDKVPEAMRMSVRNNGGGHFNHSLFWEILSPNSEEKGGVIDDIKAQWGTLDEFKNEFANKATTLFGSGWTWLVVNDGKLEIVTTPNQDNPLTEGKTPILLFDVWEHAYYLKYQNKRPDYMTAFWNIVNWKKVDELYQAAK”, the “soluble on expression in E. coli” value is “not soluble”.
